Experimental data as given in paper PMC4813486.
Where “and” joins values, the source holds several entries; their conditions need not be identical. Identical values can stand only once.

Assays:
[1] = target: full-length β2-microglobulin (UniProt P61769); test: native MS; ion mobility MS, 15 μM protein, 100 mM ammonium acetate, pH 5
[2] = target: full-length β2-microglobulin (UniProt P61769); test: native MS; ion mobility MS, 30 μM protein, 100 mM ammonium acetate, pH 5 (data not shown)
[3] = target: full-length β2-microglobulin (UniProt P61769); test: cross-linking; BS3-d0/d4 1:1, 25 °C, 1 h; gel electrophoresis (NuPAGE); bands digested in-gel with trypsin; LC-MS/MS

- stoichiometry N [1]: 2
- stoichiometry N [2]: 3 and 4
- stoichiometry N [3]: 2 and 3 and 4
Substance: full-length β2-microglobulin (from UniProt P61769 21-119) (natural protein)
